Experimental data taken from patent US20210292393A1 (published 2021).

Assays:
[1] = biological target: SARS-CoV-2 full length spike protein, D614G mutant, expressed on the surface of CHO cells (SARS-CoV-2, UniProt P0DTC2 14-1273)
[2] = biological target: SARS-CoV-2 full length spike protein, V367F mutant, expressed on the surface of CHO cells (SARS-CoV-2, UniProt P0DTC2 14-1273)
[3] = biological target: SARS-CoV-2 full length spike protein, D614G mutant (SARS-CoV-2, UniProt P0DTC2 14-1273)
[4] = biological target: SARS-CoV-2 full length spike protein, V367F mutant (SARS-CoV-2, UniProt P0DTC2 14-1273)

B1: antibody 355 (antibody, V domains shown)
VH: QVHLVESGGGVVQPGRSLRLSCAASGFTFSSFPMHWVRQAPGKGLEWVAVISYDGGDEHYTDSVEGRFTISRDNSLNTLYLQMSSLRLEDTAVYYCARDRYDSSGYYYVSDYWGQGTLITVSS
VL: SYELTQPPSVSVSPGQTARISCSGDALPKQYAYWYQQKPGQAPVLVIYKDSERPSGIPERFSGSSSGTTVTLTISGVQAEDEADYYCQSADSRGTDPWVFGGGTKLTVL
- median fluorescence intensity, fold over isotype control [1]: 20.3 fold over isotype
- median fluorescence intensity, fold over isotype control [2]: 8.08 fold over isotype

B2: antibody 272 (antibody, V domains shown)
VH: QVQLVQSGAEVKKPGASVKVSCKASGYTFTTYYMHWVRQAPGQGLEWMGIINPSGGSASYAQKFQGRVTMTRDTSTSTVYMELSSLRSEDTAVYYCARDHTLVNGDYEYYYGMDVWGQGTTVTVSS
VL: SYELTQPPSVSVSPGQTARITCSGDALPKQYAYWYQQKPGQAPVSVIYKDSERPSGIPERISGSSSGTTVTLTISGVQAEDEADYYCQSADSSGTYLVFGGGTKLTVL
- median fluorescence intensity, fold over isotype control [3]: 79.7 fold over isotype
- median fluorescence intensity, fold over isotype control [4]: 40.4 fold over isotype

B3: antibody 330 (antibody, V domains shown)
VH: QVQLVESGGGVVQPGRSLRLSCAASGFTFSSYAMHWVRQAPGKGLEWVAVISYDGSNKYYADSVKGRFTISRDNSKNTLYLQMNSLRAEDTAVYYCARDFQYYDFWSGYLTVSSPTSYYGMDVWGQGTTVTVSS
VL: NFMLTQPHSVSESPGKTVTISCTGSSGSIASNYVQWYQQRPGSAPTTVIYEDNQRPSGVPDRFSGSIDSSSNSASLTISGLKTEDEADYYCQSYDSSNVVFGGGTKLTVL
- median fluorescence intensity, fold over isotype control [1]: 56.5 fold over isotype
- median fluorescence intensity, fold over isotype control [2]: 22.4 fold over isotype

B4: antibody 314 (antibody, V domains shown)
VH: EVQLVESGGGLVKPGGSLRLSCAASGFTLSSYSMNWVRQAPGKGLEWVSCISSSSSYIYYADSVKGRFTISRDNAKNSLYLQMNSLRAEDTAVYYCASDPLDIVVVPAARDYYYYGMDVWGQGTTVTVSS
VL: not shown
- median fluorescence intensity, fold over isotype control [1]: 30.4 fold over isotype
- median fluorescence intensity, fold over isotype control [2]: 19.6 fold over isotype

B5: antibody 311 (antibody, V domains shown)
VH: QVQLQESGPGLVKPSETLSLTCTVSGYSISSGYYWGWIRQPPGKGLEWIGSIYHSGSTYYNPSLKSRVTISVDTSKNQFSLKLSSVTAADTAVYYCAREETLGSSWYESYIDYWGQGTLVTVSS
VL: SYVLTQPPSVSVAPGKTARITCGGNNIGSKSVHWYQQKPGQAPVLVIYYDSDRPSGIPERFSGSNSGNTATLTISRVEAGDEADYYCQVWDSSSDHPRVFGGGTKLTVL
- median fluorescence intensity, fold over isotype control [1]: 59.7 fold over isotype
- median fluorescence intensity, fold over isotype control [2]: 29.6 fold over isotype

B6: antibody 346 (antibody, V domains shown)
VH: EVQLVQSGAEVKKPGESLKISCKGSGYSFTSYWIGWVRQMPGKGLEWMGIIYPGDSDTRYSPSFQGQVTISADKSISTAYLQWSSLKASDTAMYYCARHGPQDGYSSSWYLDYWGQGTLVTVSS
VL: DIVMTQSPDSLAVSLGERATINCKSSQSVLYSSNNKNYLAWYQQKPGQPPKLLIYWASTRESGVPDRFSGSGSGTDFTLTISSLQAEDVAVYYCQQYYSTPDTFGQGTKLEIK
- median fluorescence intensity, fold over isotype control [1]: 8.57 fold over isotype
- median fluorescence intensity, fold over isotype control [2]: 7.05 fold over isotype

B7: antibody 357 (antibody, V domains shown)
VH: QVQLVQSGAEVKKPGSSVKVSCKASGGTFSSYAISWVRQAPGQGLEWMGRIIPILGIANYAQKFQGRVTITADKSTSTAYMELSSLRSEDTAVYYCARGPIAVAGIGPWFDPWGQGTLVTVSS
VL: QSVLTQPPSVSAAPGQKVTISCSGSSSNIGNNYVSWYQQLPGTAPKLLIYDNNKRPSGIPDRFSGSKSGTSATLGITGLQTGDEADYYCGTWDSSLSAVVFGGGTKLTVL
- median fluorescence intensity, fold over isotype control [1]: 5.37 fold over isotype
- median fluorescence intensity, fold over isotype control [2]: 28 fold over isotype

B8: antibody 261 (antibody, V domains shown)
VH: QVQLVESGGGVVQPGRSLRLSCAASGFTFSSYAMHWVRQAPGKGLEWVAVISYDGSNKYYADSVKGRFTISRDNSKNTLYLQMNSLRAEDTAVYYCARDEAYYDILTGYINAPKNYYYYGMDVWGQGTTVTVSS
VL: DIQMTQSPSSLSASVGDRVTITCRASQGIRNDLGWYQQKPGKAPKRLIYAASSLQSGVPSRFSGSGSGTEFTLTISSLQPEDFATYYCLQHNSYPFTFGPGTKVDIK
- median fluorescence intensity, fold over isotype control [3]: 87 fold over isotype
- median fluorescence intensity, fold over isotype control [4]: 59.9 fold over isotype

B9: antibody 356 (antibody, V domains shown)
VH: QVQLVQSGAEVKKPGASVKVSCKASGYTFTSYGISWVRQAPGQGLEWMGWISAYHGNTNYAQKLQGRVTMTTDTSTSTAYMELRSLRSDDTAVYYCARVGLWWLGHADAFDIWGQGTMVTVSS
VL: DIQMTQSPSSLSASVGDRVTITCRASQGIRNDLGWYQQKPGKAPKRLIYAASSLQSGVPSRFSGSGSGTEFTLTISSLQPEDFATYYCLQHNSYPLTFGGGTKVEIK
- median fluorescence intensity, fold over isotype control [1]: 90.8 fold over isotype
- median fluorescence intensity, fold over isotype control [2]: 60.4 fold over isotype

B10: antibody 358 (antibody, V domains shown)
VH: QVQLVESGGGVVQPGRSLRLSCAASGFNLNSYAMHWVRQASGKGLEWVSLMSYDGSIKYYADSVKGRFTVSGDNSRNTLFLQMNSLRPDDSALYYCVRGGVSGPNSFDLWGQGTTVTVSS
VL: DVVMTQSPLSLPVTLGQPASISCRSSQSLVYSDGSTYVNWFQQRPGQSPRRLIYKVSNRDSGVPDRFSGSGSGTDFALKISRVEAEDVGVYYCMQGTHWPVTFGQGTKVEIK
- median fluorescence intensity, fold over isotype control [1]: 8.74 fold over isotype
- median fluorescence intensity, fold over isotype control [2]: 38.4 fold over isotype

B11: antibody 318 (antibody, V domains shown)
VH: QVQLVESGGGVVPPGRSLSLPCAASGFSFSAYAMHWLRQAPGKGLEWVAVISYDGTVKYVADSVRGRFTISRDNSNNTLYLQMTSLRSDDTAVYYCARDLGALAAAPTVYFVHWGQGTLVTVSS
VL: SYVLTQPPSVSVAPGKTATITCAGEDIGRKSVHWYQQKPGQAPVLVIFYYSDRPSGIPDRFSGSVSGNTATLTIGRVEAGDEADYFCQVWDRTTNHVIFGGGTKVTVL
- median fluorescence intensity, fold over isotype control [1]: 9.92 fold over isotype
- median fluorescence intensity, fold over isotype control [2]: 40.3 fold over isotype

B12: antibody 268 (antibody, V domains shown)
VH: QVQLQESGPGLVKPSQTLSLTCTVSGGSISSGSYYWSWIRQPAGKGLEWIGRIYTSGSTNYNPSLKSRVTISVDTSKNQFSLKLSSVTAADTAVYYCARELVGGLLGTIDYWGQGTLVTVSS
VL: DIQLTQSPSFLSASVGDRVTITCRASQGISSYLAWYQQKPGKAPKLLIYAASTLQSGVPSRFSGSGSGTEFTLTISSLQPEDFATYYCQQLNSYPYTFGQGTKLEIK
- median fluorescence intensity, fold over isotype control [3]: 8.18 fold over isotype
- median fluorescence intensity, fold over isotype control [4]: 8.9 fold over isotype

B13: antibody 338 (antibody, V domains shown)
VH: QVQLQESGPGLVKPSETLSLTCAVSGYSISSDYYWGWIRQPPGKGLEWIGSIYHSGSTYYNPSLKSRVTISIDTSKNQFSLKLSSVTAADTAVYYCARDPGNYDILTGIFDYWGQGTLVTVSS
VL: QSALTQPASVSGSPGQSITISCTGTSSDVGVYNYVSWYQQHPGKAPKLMIYDVTNRPSGVSNRFSGSKSGNTASLTISGLQAEDEADYYCSSYTSSSTLAVYVFGTGTKVTVL
- median fluorescence intensity, fold over isotype control [1]: 7.81 fold over isotype
- median fluorescence intensity, fold over isotype control [2]: 33.2 fold over isotype

B14: antibody 312 (antibody, V domains shown)
VH: QVQLVQSGAEVKKPGASVKVSCKASGYTFTSYGISWVRQAPGQGLEWMGWISAYNGNTNYAQKLQGRVTMTTDTSTSTAYMELRSLRSDDTAVYYCARMLIAAAGTSRDYYGMDVWGQGTTVTVSS
VL: not shown
- median fluorescence intensity, fold over isotype control [1]: 24.5 fold over isotype
- median fluorescence intensity, fold over isotype control [2]: 11.3 fold over isotype
